Laboratory results reported in patent publication US20120114652A1 (AbbVie / Abbott, published 2012).

Tests used:
[1] = molecular target: T1, glycosylated active human PAI-1 produced by CHO cells (human, UniProt P05121 24-402, N-glycosylated (CHO-produced)); assay: IgG competition ELISA (DELFIA) against biotinylated human PAI-1, one-site binding analysis; column Human glycosylated
T1 construct: also called hu glyco; human glycosylated PAI-1

latent human PAI-1 [2] = molecular target: T2, latent human PAI-1 (human, UniProt P05121 24-402); assay: IgG competition ELISA (DELFIA) against biotinylated human PAI-1, one-site binding analysis; column Human latent
T2 construct: also called latent PAI-1

PAI-3 = molecular target: T3, PAI-3 (UniProt P05154 26-406, limits assumed); assay: competition ELISA (DELFIA): PICK167_A01 IgG1 coated on the plate, biotinylated human PAI-1, titration of the unlabelled test antigen
T3 sequence (looked up): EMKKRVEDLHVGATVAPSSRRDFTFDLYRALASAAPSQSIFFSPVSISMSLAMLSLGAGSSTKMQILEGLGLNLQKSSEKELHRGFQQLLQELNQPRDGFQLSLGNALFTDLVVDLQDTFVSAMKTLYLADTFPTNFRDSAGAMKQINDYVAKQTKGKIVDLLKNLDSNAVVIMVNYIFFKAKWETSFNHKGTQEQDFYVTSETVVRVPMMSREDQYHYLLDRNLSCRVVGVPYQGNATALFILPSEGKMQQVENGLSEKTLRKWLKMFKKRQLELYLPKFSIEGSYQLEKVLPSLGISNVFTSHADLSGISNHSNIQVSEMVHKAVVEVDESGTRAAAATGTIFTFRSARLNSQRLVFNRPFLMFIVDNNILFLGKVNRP

antithrombin III = antithrombin III (UniProt P01008 33-464); assay: as above
α1-antichymotrypsin = molecular target: T4, α1-antichymotrypsin (UniProt P01011 24-423); assay: as above
T4 sequence (looked up): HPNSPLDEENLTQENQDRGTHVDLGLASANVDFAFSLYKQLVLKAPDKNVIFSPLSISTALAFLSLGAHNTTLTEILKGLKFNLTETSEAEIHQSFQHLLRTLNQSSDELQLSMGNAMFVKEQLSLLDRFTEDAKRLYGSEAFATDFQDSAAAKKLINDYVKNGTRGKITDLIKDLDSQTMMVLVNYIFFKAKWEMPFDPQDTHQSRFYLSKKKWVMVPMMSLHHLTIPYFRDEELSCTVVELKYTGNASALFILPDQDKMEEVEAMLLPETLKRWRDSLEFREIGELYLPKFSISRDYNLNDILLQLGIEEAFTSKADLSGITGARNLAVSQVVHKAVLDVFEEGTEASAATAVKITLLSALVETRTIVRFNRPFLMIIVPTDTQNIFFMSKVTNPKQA

cynomolgus PAI-1 = cynomolgus PAI-1 (cynomolgus, UniProt P05121 24-402 (human entry), limits assumed); assay: cell-based or functional assay
rat PAI-1 = molecular target: T5, rat PAI-1 (rat, UniProt P20961 24-402); assay: cell-based or functional assay
T5 sequence: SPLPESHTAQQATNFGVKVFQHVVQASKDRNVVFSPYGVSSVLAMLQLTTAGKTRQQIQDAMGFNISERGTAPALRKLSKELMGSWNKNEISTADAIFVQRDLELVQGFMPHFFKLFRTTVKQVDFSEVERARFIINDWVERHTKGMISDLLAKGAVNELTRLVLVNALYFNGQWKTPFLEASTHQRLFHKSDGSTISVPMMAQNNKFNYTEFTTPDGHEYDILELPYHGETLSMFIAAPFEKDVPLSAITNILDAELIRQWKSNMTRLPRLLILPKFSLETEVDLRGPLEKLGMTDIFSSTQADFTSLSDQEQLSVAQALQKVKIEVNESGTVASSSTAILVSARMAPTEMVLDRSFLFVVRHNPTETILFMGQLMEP

[3] = molecular target: human PAI-1, active, wild-type, non-glycosylated (E. coli-derived) (human, UniProt P05121 24-402); assay: cell-based or functional assay
mouse PAI-1 = molecular target: T6, mouse PAI-1 (mouse, UniProt P22777 24-401); assay: IgG competition ELISA (DELFIA) against biotinylated human PAI-1, one-site binding analysis; column Mouse
T6 construct: bought (US Biological); also called murine PAI-1
T6 sequence: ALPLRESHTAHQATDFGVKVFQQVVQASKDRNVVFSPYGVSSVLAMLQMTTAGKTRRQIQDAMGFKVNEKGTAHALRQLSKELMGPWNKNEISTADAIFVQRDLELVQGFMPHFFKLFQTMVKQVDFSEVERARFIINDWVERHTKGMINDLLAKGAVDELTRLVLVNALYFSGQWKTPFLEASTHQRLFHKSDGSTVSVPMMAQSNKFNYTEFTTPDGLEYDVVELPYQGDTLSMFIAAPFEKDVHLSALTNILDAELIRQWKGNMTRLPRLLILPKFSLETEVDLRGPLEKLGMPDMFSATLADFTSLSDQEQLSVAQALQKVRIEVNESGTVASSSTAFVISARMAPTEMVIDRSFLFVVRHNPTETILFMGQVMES

rabbit PAI-1 = molecular target: T7, rabbit PAI-1 (rabbit); assay: IgG competition ELISA (DELFIA) against biotinylated human PAI-1, one-site binding analysis; column Rabbit
T7 chain: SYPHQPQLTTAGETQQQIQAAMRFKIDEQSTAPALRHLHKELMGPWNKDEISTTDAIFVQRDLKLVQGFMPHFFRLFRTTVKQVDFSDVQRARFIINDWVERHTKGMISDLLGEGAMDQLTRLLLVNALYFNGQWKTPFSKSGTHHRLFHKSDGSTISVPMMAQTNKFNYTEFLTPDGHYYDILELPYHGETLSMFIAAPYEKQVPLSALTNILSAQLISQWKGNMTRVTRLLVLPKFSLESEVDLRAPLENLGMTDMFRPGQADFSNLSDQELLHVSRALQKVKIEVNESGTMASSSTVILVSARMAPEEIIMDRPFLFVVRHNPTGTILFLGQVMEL

latent human PAI-1 [4] = molecular target: T2, latent human PAI-1; assay: IgG competition ELISA (DELFIA), one-site binding analysis
[5] = molecular target: T8, dog PAI-1 (bacterially-derived active dog PAI-1) (dog); assay: IgG competition ELISA (DELFIA) against biotinylated human PAI-1, one-site binding analysis; column Dog
T8 construct: also called canine PAI-1

B1: PICK167_A01 IgG1 (antibody, V domains shown)
VH: QVQLQQSGAEVKKPGSSVKVSCKASGGTFSSYAISWVRQAPGQRLEWMGGIIPTFGTANYAQKFQGRVTITADESTSTAYMELSGLRSEDTAVYYCARERRQWLEGHFDYWGRGTPVTVSS
VL: DIQMTQSPSFLSASIGDRVTITCRASEGIYHNLAWYQQKPGKAPKLLIYKASSLASGAPSRFSGSRSGTDFTLTISSLQPDDFATYYCQQYSNYPLTFGGGTKLEIKR
With B1 the “fold difference in observed binding KD compared to human wild-type active” value (from here on “fold difference in observed binding KD”) [1] was 1.2 fold, the “fold difference in observed binding KD” value (latent human PAI-1 [2]) was 8.5 fold and the binding result (PAI-3) was “no binding (tested: log M about -6.3 (about 5e-7 M))”. For the same binder, the binding result (antithrombin III) was “no binding (tested: log M about -6.3 (about 5e-7 M))”, the binding result (α1-antichymotrypsin) was “no binding (tested: log M about -6.3 (about 5e-7 M))” and the “IC50, PAI-1:tPA functional assay” value (cynomolgus PAI-1) was 0.8 nM. The “IC50, PAI-1:tPA functional assay” value (rat PAI-1) was 1.97 nM, the “IC50, PAI-1:tPA functional assay” value [3] was 1.34 nM and the “fold difference in observed binding KD” value (mouse PAI-1) was 47 fold. For the same binder, the “fold difference in observed binding KD” value (rabbit PAI-1) was 41.5 fold, the “fold loss of binding affinity against wild-type active PAI-1” value (latent human PAI-1 [4]) was 10 fold and the “fold difference in observed binding KD” value [5] was 2.7 fold.
